# In publication PMC3087007 (The Journal of Cell Biology, 2011):
# B1: VSV G epitope-tagged human ZO-1 U5-GuK domain construct (residues 591–754) (domain or fragment)
# chain: PKTAGGDRADFWRFRGLRSSKRNLRKSREDLSAQPVQTKFPAYERVVLREAGFLRPVTIFGPIADVAREKLAREEPDIYQIAKSEPRDAGTDQRSSGIIRLHTIKQIIDQDKHALLDVTPNAVDRLNYAQWYPIVVFLNPDSKQGVKTMRMRLCPESRKSARKL
# Target: T1, GST-occludin 383–522 S408A (human, UniProt Q16625 383-522, S408A)
# T1 sequence: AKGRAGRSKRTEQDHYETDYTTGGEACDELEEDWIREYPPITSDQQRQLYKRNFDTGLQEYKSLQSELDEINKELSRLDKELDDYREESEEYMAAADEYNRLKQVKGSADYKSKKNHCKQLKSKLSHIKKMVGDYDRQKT
# Experiment: pull-down
binder,measurement,value
B1,fold binding relative to the S408D mutant,3.2 fold
